Experimental findings from patent US12702716B2, “Monocyte-specific aptamers and uses thereof for delivering therapeutic agents to heart” (Academia Sinica, priority 2020, dated 2026) are described below.

For data set [1], the system named is human umbilical cord endothelial cells (HUVEC). Kind of data set: Flow cytometry binding of Cy5-labeled aptamers to HUVEC (negative control). Particulars: 200 nM Cy5-aptamer, 4° C., 30 minutes; FIG. 3. As for the experimental part: (§1) To confirm that J10 binding, but not S2 binding, was selective to human monocytes in vitro, Cy5-labeled J10 and S2 were also incubated with the human monocyte cell lines, THP-1 and U937, and human umbilical cord endothelial cells (HUVEC), which were used as a negative control. In brief, 5×10^5 of each selected cell line was pre-mixed in a bloc king buffer (20% FBS and 10% salmon sperm DNA in PBS) at 4° C. for 30 minutes. After that, the cells were reacted with 200 nM Cy5-J10 or Cy5-S2 in the blocking buffer at 4° C. for 30 minutes. Finally, the sample was subjected to flow cytometry using standard protocols known in the art.
In general terms: Flow cytometry measures light scatter and fluorescence of single cells or particles in a stream.

The test system of data set [2] is mouse endothelial cell line SVEC. Kind of data set: Flow cytometry binding of Cy5-labeled aptamers to SVEC (negative selection). To be noted: 200 nM Cy5-aptamer, 4° C., 30 minutes; FIG. 2A. As to the method: (§2) Cy5-labeled J10 and S2 were also incubated with the mouse endothelial cell line SVEC which was used as a negative selection. In brief, 5×10^5 of each selected cell line was pre-mixed in a bloc king buffer (20% FBS and 10% salmon sperm DNA in PBS) at 4° C. for 30 minutes. After that, the cells were reacted with 200 nM Cy5-J10 or Cy5-S2 in the blocking buffer at 4° C. for 30 minutes. Finally, the sample was subjected to flow cytometry using standard protocols known in the art.

The subject of data set [3] is circulating myeloid cells (CD45+ CD11b+ cells). In words: Ex vivo binding to peripheral blood cells by flow cytometry. Set-up: species or system mouse. To be noted: 2 μM Cy5-Apt, 30 minutes at 4° C., peripheral blood of healthy mice; FIG. 2D. As for the experimental part: To test for ex vivo binding specificity and affinity, 100 μL peripheral blood from healthy mice was withdrawn via the submandibular vein, collected in EDTA-containing anticoagulant tubes (BD Vacutainer), and incubated with 2 mL ACK lysing buffer for 10 minutes to lyse the red blood cells. After that, 2% FBS in PBS was added to stop the reaction. Following centrifugation (300 g for 3 minutes at 4° C.) the supernatants were removed. One million cells were blocked by CD16/CD32 Fc blocking antibody (1:100; Invitrogen) after incubation for 20 minutes. Then the cells were stained for CD45 (PE-Cy7; 1:100; Biolegend), CD11b (PE; 1:200; Biolegend) and 2 μM Cy5-Apt for 30 minutes at 4° C. Finally, the cells were washed by 2% FBS in PBS and subjected to flow cytometry using standard protocols known in the art.

The subject of data set [4] is human monocyte cell line THP-1. Kind of data set: Flow cytometry binding of Cy5-labeled aptamers to THP-1. Particulars: 200 nM Cy5-aptamer, 4° C., 30 minutes; FIG. 3. As for the experimental part:
as §1

In data set [5] the test system is RAW264.7 monocyte cell line. Kind of data set: Flow cytometry binding of Cy5-labeled aptamers to RAW264.7. Particulars: 200 nM Cy5-aptamer, 4° C., 30 minutes; FIG. 2A. Further details: species or system mouse. As to the method: as §2
Data set [6] deals with J774A.1 monocyte cell line. In words: Flow cytometry binding of Cy5-labeled aptamers to J774A.1. Set-up: species or system mouse. Particulars: 200 nM Cy5-aptamer, 4° C., 30 minutes; FIG. 2A. As for the experimental part: as §2
Data set [7] concerns infarct area of the injured hearts. Particulars: mouse, iv. As to the method:
as §2
To generate the murine I/R models, 8-10 weeks old mice were anesthetised with 80 mg/kg Zoletil 50 and 3.5 mg/kg Rompun and given O2 via a tracheal tube on the 37° C. heating pad. The heart was accessed via left thoracotomy between the third and fourth ribs. The left anterior descending coronary artery was temporarily ligated with sutures 7-0 polypropylene through polyethylene-10 tubing for 45 minutes. Subsequently, polyethylene-10 tubing was removed to induce myocardial ischemia/reperfusion injury. The success of the surgery was evaluated by echocardiography on the following day.

For data set [8], the system named is human monocyte cell line U937. In words: Flow cytometry binding of Cy5-labeled aptamers to U937. To be noted: 200 nM Cy5-aptamer, 4° C., 30 minutes; FIG. 3. As for the experimental part: as §1

B1: J10: monocyte-specific DNA aptamer from cell-SELEX, SEQ ID NO. 4 (Table 2); Cy5-labeled for flow cytometry (nucleic acid)
DNA: CAATAGAGTCGTACAGGTCGACGCTCGGATGCCACTACAGGGATGGGAGGGAGGGGGCTCGTGGCGGCTAGGGGGTATAACTCATGGACGTGCTGGTGAC
modifications: DNA, backbone and methylation of C not given here; Cy5 label
Turning to B1, the “binding affinity to HUVEC” value in data set [1] is “but not human endothelial cell line HUVEC”. The “detection of Cy5-labeled aptamer in SVEC” value in data set [2] is reported as “no detection”. Besides, in data set [3], the “affinity to circulating myeloid cells (CD45+ CD11b+ cells)” value is “high affinity”. Also, the “binding affinity to THP-1” value in data set [4] is reported as “high binding affinity”. The “percentage of Cy5-labeled monocytes (RAW264.7)” value in data set [5] is recorded as “significantly higher than the percentage of Cy5-labeled S2 monocytes”. For the same molecule, the “percentage of Cy5-labeled monocytes (J774A.1)” value in data set [6] is on record as “significantly higher than the percentage of Cy5-labeled S2 monocytes”. Further, in data set [7], the “in vivo targeting of aptamer to the injured site (PCR)” value is on record as “confirmed in vivo targeting ability”. For the same molecule, the “binding affinity to U937” value in data set [8] is listed as “high binding affinity”.

B2: S2: control aptamer, scrambled J10 sequence with same nucleotide composition, SEQ ID NO. 5 (nucleic acid)
DNA: CAATAGAGTCGTACAGGTCGTGAGAAGGCGTTGGTCTATCGGGGTCGTGGACTGTCCAAGGGCATGACCGGTCTGACGGTGGCCAGAGACGCAGGAGGGG
modifications: DNA, backbone and methylation of C not given here; Cy5 label
For the molecule B2, the “binding affinity to HUVEC” value in data set [1] was “no binding affinity”. Further, in data set [2], the “detection of Cy5-labeled aptamer in SVEC” value is “no detection”. In addition, in data set [4], the “binding affinity to THP-1” value was “no binding affinity”. In addition, the “percentage of Cy5-labeled monocytes (RAW264.7)” value in data set [5] is on record as “but not S2, was capable of binding selectively to monocytes in vitro”. Further, in data set [6], the “percentage of Cy5-labeled monocytes (J774A.1)” value is “but not S2, was capable of binding selectively to monocytes in vitro”. For the same molecule, the “binding affinity to U937” value in data set [8] is listed as “no binding affinity”.
